Sequences and labels used below:
B1: target 1 MT 5'PFS UUA 3'PFS AUA (mixed)
RNA 1: CACCCGUGCAAAAAUGCAGGGGUCUAAAACUGAGCGGAUAACCUCUCUAUGG
RNA 2: GGGAAUGGAUCCACAUCUACGAAUUCUUACCAUAGAGAGGUUAUCCGCUCAAUAAGAUCGGAAGAGCACACGU
B2: target 1 MT 5'PFS CCG 3'PFS CAC (mixed)
RNA 1: CACCCGUGCAAAAAUGCAGGGGUCUAAAACUGAGCGGAUAACCUCUCUAUGG
RNA 2: GGGAAUGGAUCCACAUCUACGAAUUCCCGCCAUAGAGAGGUUAUCCGCUCACACAGAUCGGAAGAGCACACGU
B3: target 1 MT 5'PFS AAC 3'PFS CCG (mixed)
RNA 1: CACCCGUGCAAAAAUGCAGGGGUCUAAAACUGAGCGGAUAACCUCUCUAUGG
RNA 2: GGGAAUGGAUCCACAUCUACGAAUUCAACCCAUAGAGAGGUUAUCCGCUCACCGAGAUCGGAAGAGCACACGU
B4: target 1 MT 5'PFS AAA 3'PFS ACA (mixed)
RNA 1: CACCCGUGCAAAAAUGCAGGGGUCUAAAACUGAGCGGAUAACCUCUCUAUGG
RNA 2: GGGAAUGGAUCCACAUCUACGAAUUCAAACCAUAGAGAGGUUAUCCGCUCAACAAGAUCGGAAGAGCACACGU
B5: target 1 MT 5'PFS GCA 3'PFS UCG (mixed)
RNA 1: CACCCGUGCAAAAAUGCAGGGGUCUAAAACUGAGCGGAUAACCUCUCUAUGG
RNA 2: GGGAAUGGAUCCACAUCUACGAAUUCGCACCAUAGAGAGGUUAUCCGCUCAUCGAGAUCGGAAGAGCACACGU
B6: target 1 MT 5'PFS GAG 3'PFS CGA (mixed)
RNA 1: CACCCGUGCAAAAAUGCAGGGGUCUAAAACUGAGCGGAUAACCUCUCUAUGG
RNA 2: GGGAAUGGAUCCACAUCUACGAAUUCGAGCCAUAGAGAGGUUAUCCGCUCACGAAGAUCGGAAGAGCACACGU
B7: target 1 MT 5'PFS GAG 3'PFS CGG (mixed)
RNA 1: CACCCGUGCAAAAAUGCAGGGGUCUAAAACUGAGCGGAUAACCUCUCUAUGG
RNA 2: GGGAAUGGAUCCACAUCUACGAAUUCGAGCCAUAGAGAGGUUAUCCGCUCACGGAGAUCGGAAGAGCACACGU
B8: target 1 MT 5'PFS AAA 3'PFS ACC (mixed)
RNA 1: CACCCGUGCAAAAAUGCAGGGGUCUAAAACUGAGCGGAUAACCUCUCUAUGG
RNA 2: GGGAAUGGAUCCACAUCUACGAAUUCAAACCAUAGAGAGGUUAUCCGCUCAACCAGAUCGGAAGAGCACACGU
B9: target 1 MT 5'PFS AAG 3'PFS AAG (mixed)
RNA 1: CACCCGUGCAAAAAUGCAGGGGUCUAAAACUGAGCGGAUAACCUCUCUAUGG
RNA 2: GGGAAUGGAUCCACAUCUACGAAUUCAAGCCAUAGAGAGGUUAUCCGCUCAAAGAGAUCGGAAGAGCACACGU
B10: target 1 MT 5'PFS GUU 3'PFS UGA (mixed)
RNA 1: CACCCGUGCAAAAAUGCAGGGGUCUAAAACUGAGCGGAUAACCUCUCUAUGG
RNA 2: GGGAAUGGAUCCACAUCUACGAAUUCGUUCCAUAGAGAGGUUAUCCGCUCAUGAAGAUCGGAAGAGCACACGU
B11: target 1 MT 5'PFS GCA 3'PFS UCU (mixed)
RNA 1: CACCCGUGCAAAAAUGCAGGGGUCUAAAACUGAGCGGAUAACCUCUCUAUGG
RNA 2: GGGAAUGGAUCCACAUCUACGAAUUCGCACCAUAGAGAGGUUAUCCGCUCAUCUAGAUCGGAAGAGCACACGU
B12: target 1 MT 5'PFS GUU 3'PFS UGC (mixed)
RNA 1: CACCCGUGCAAAAAUGCAGGGGUCUAAAACUGAGCGGAUAACCUCUCUAUGG
RNA 2: GGGAAUGGAUCCACAUCUACGAAUUCGUUCCAUAGAGAGGUUAUCCGCUCAUGCAGAUCGGAAGAGCACACGU
B13: target 1 MT 5'PFS GUU 3'PFS UGU (mixed)
RNA 1: CACCCGUGCAAAAAUGCAGGGGUCUAAAACUGAGCGGAUAACCUCUCUAUGG
RNA 2: GGGAAUGGAUCCACAUCUACGAAUUCGUUCCAUAGAGAGGUUAUCCGCUCAUGUAGAUCGGAAGAGCACACGU
B14: target 1 MT 5'PFS AAA 3'PFS ACU (mixed)
RNA 1: CACCCGUGCAAAAAUGCAGGGGUCUAAAACUGAGCGGAUAACCUCUCUAUGG
RNA 2: GGGAAUGGAUCCACAUCUACGAAUUCAAACCAUAGAGAGGUUAUCCGCUCAACUAGAUCGGAAGAGCACACGU
B15: target 1 MT 5'PFS CCU 3'PFS AGA (mixed)
RNA 1: CACCCGUGCAAAAAUGCAGGGGUCUAAAACUGAGCGGAUAACCUCUCUAUGG
RNA 2: GGGAAUGGAUCCACAUCUACGAAUUCCCUCCAUAGAGAGGUUAUCCGCUCAAGAAGAUCGGAAGAGCACACGU
B16: target 1 insG 3' of 18,insG 3' of 10 (mixed)
RNA 1: CACCCGUGCAAAAAUGCAGGGGUCUAAAACUGAGCGGAUAACCUCUCUAUGG
RNA 2: GGGAAUGGAUCCACAUCUACGAAUUCGUACCAUAGGAGAGGUUGAUCCGCUCACCGAGAUCGGAAGAGCACACGU
B17: target 1 insU 3' of 13,insU 3' of 13 (mixed)
RNA 1: CACCCGUGCAAAAAUGCAGGGGUCUAAAACUGAGCGGAUAACCUCUCUAUGG
RNA 2: GGGAAUGGAUCCACAUCUACGAAUUCGUACCAUAGAGAGUUGUUAUCCGCUCACCGAGAUCGGAAGAGCACACGU
B18: target 1 MT 5'PFS CCU 3'PFS CGC (mixed)
RNA 1: CACCCGUGCAAAAAUGCAGGGGUCUAAAACUGAGCGGAUAACCUCUCUAUGG
RNA 2: GGGAAUGGAUCCACAUCUACGAAUUCCCUCCAUAGAGAGGUUAUCCGCUCACGCAGAUCGGAAGAGCACACGU
B19: target 1 MT 5'PFS UUA 3'PFS AUC (mixed)
RNA 1: CACCCGUGCAAAAAUGCAGGGGUCUAAAACUGAGCGGAUAACCUCUCUAUGG
RNA 2: GGGAAUGGAUCCACAUCUACGAAUUCUUACCAUAGAGAGGUUAUCCGCUCAAUCAGAUCGGAAGAGCACACGU
B20: target 1 MT 5'PFS AAA 3'PFS ACG (mixed)
RNA 1: CACCCGUGCAAAAAUGCAGGGGUCUAAAACUGAGCGGAUAACCUCUCUAUGG
RNA 2: GGGAAUGGAUCCACAUCUACGAAUUCAAACCAUAGAGAGGUUAUCCGCUCAACGAGAUCGGAAGAGCACACGU
B21: target 1 MT 5'PFS CCG 3'PFS ACA (mixed)
RNA 1: CACCCGUGCAAAAAUGCAGGGGUCUAAAACUGAGCGGAUAACCUCUCUAUGG
RNA 2: GGGAAUGGAUCCACAUCUACGAAUUCCCGCCAUAGAGAGGUUAUCCGCUCAACAAGAUCGGAAGAGCACACGU
B22: target 1 MT 5'PFS GCA 3'PFS UCA (mixed)
RNA 1: CACCCGUGCAAAAAUGCAGGGGUCUAAAACUGAGCGGAUAACCUCUCUAUGG
RNA 2: GGGAAUGGAUCCACAUCUACGAAUUCGCACCAUAGAGAGGUUAUCCGCUCAUCAAGAUCGGAAGAGCACACGU
B23: target 1 MT 5'PFS GGA 3'PFS GAG (mixed)
RNA 1: CACCCGUGCAAAAAUGCAGGGGUCUAAAACUGAGCGGAUAACCUCUCUAUGG
RNA 2: GGGAAUGGAUCCACAUCUACGAAUUCGGACCAUAGAGAGGUUAUCCGCUCAGAGAGAUCGGAAGAGCACACGU

In paper PMC10786891, “Massively parallel profiling of RNA-targeting CRISPR-Cas13d” one finds Kd data, which are given here for 23 molecules.

This data set has as its target T1, EsCas13d, nuclease-dead (Eubacterium siraeum, UniProt B0MS50, R295A;H300A;R849A;H854A).
T1 sequence: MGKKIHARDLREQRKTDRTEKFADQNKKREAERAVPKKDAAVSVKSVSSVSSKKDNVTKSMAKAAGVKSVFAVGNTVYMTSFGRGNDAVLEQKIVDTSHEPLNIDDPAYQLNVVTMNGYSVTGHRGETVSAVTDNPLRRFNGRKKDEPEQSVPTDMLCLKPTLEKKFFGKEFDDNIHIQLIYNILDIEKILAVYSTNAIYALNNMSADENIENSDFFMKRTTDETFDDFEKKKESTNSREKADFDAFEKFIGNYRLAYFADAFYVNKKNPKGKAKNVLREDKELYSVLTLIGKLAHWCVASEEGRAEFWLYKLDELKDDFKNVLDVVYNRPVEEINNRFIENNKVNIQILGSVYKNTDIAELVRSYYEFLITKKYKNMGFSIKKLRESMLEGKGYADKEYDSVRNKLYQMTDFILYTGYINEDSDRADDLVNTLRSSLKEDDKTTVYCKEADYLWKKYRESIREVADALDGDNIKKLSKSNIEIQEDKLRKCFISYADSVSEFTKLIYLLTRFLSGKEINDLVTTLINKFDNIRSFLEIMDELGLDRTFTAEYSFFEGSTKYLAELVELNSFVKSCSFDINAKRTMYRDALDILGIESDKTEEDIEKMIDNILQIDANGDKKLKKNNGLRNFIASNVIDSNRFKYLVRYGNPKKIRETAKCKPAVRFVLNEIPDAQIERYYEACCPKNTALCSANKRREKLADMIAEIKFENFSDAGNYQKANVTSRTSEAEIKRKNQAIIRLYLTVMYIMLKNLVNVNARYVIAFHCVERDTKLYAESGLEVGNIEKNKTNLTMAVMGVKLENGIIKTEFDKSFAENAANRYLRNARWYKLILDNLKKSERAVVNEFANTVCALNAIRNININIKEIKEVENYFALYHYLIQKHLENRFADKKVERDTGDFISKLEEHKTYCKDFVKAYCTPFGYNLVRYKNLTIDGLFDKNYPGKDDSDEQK
Nature of the data set: crRNA (strand 1, pre-loaded); Mg2+; 40 mM Tris-HCl pH 7.5, 150 mM NaCl, 6 mM MgCl2, 1 mM DTT, 0.1% Tween-20, 0.2 mg/ml BSA; 25 C; 10 min per concentration, then washed. To be noted: tags: His6-TwinStrep-SUMO cleaved; N-terminal SNAP kept (SNAP-Surface 488); label: 3' end held by stalled T7 RNA polymerase.
Turning to B1, binding was put at a Kd of 0.077 ± 0.025 µM.

Consider B2, for which the Kd (in general, a measure of binding affinity in units of concentration) amounted to 0.00645 ± 0.00275 µM.

Molecule B3 came in with a Kd of 0.0195 ± 0.00445 µM.

On to B4, for which the Kd was determined as 0.0295 ± 0.014 µM.

For B5, binding was characterised by a dissociation constant (Kd) of 0.0137 ± 0.0024 µM.

On to B6, for which the Kd is approximately 0.049 µM.

B7: the Kd is approximately 0.1 µM.

B8 registered a Kd of 0.042 ± 0.0135 µM.

In the case of B9, the affinity, expressed as Kd, was 0.0205 ± 0.0045 µM.

Consider B10, for which the affinity, expressed as Kd, was 0.0168 ± 0.0025 µM.

B11 displayed a Kd of 0.0106 ± 0.00255 µM.

On to B12, for which the Kd stood at 0.0155 ± 0.0027 µM.

In turn, B13 had a Kd of 0.0345 ± 0.0065 µM.

On to B14, for which the Kd was 0.0121 ± 0.0026 µM.

On to B15, for which the Kd is 0.0315 ± 0.0145 µM.

In turn, B16 yielded a Kd of 0.061 ± 0.015 µM.

Turning to B17, binding was put at a Kd of 0.0065 ± 0.0006 µM.

Molecule B18 displayed a Kd of approximately 0.0155 µM.

Consider B19, for which binding was characterised by a dissociation constant (Kd) of 0.0205 ± 0.005 µM.

As for B20, the Kd came out at 0.0186 ± 0.00445 µM.

With B21, the Kd stood at 0.0385 ± 0.013 µM.

Turning to B22, the Kd amounted to 0.0118 ± 0.0029 µM.

As for B23, the dissociation constant Kd amounted to 0.019 ± 0.006 µM.
